Laboratory results: the DeepSol protein solubility set

assay: soluble on expression in E. coli; label from the status in PepcDB or PDB records

Soluble on expression in E. coli, not soluble:
MGSDKIHHHHHHMSLDRVDWPHATFSTPVKRIFDTQTTLDFQSSLAIHRIKYHLHKYTTLISHCSDPDPHATASSIAMVNGLMGVLDKLAHLIDETPPLPGPRRYGNLACREWHHKLDERLPQWLQEMLPSEYHEVVPELQYYLGNSFGSSTRLDYGTGHELSFMATVAALDMLGMFPHMRGADVFLLFNKYYTIMRRLILTYTLEPAGSHGVWGLDDHFHLVYILGSSQWQLLDAQAPLQPREILDKSLVREYKDTNFYCQGINFINEVKMGPFEEHSPILYDIAVTVPRWSKVCKGLLKMYSVEVLKKFPVVQHFWFGTGFFPWVNIQNGTDLPVFEEKEEESIEQANAGSPGREQTSTRFPTSTSMPPPGVPPSGNNINYLLSHQNQSHRNQTSFSRDRLRR
MGSDKIHHHHHHMSLKKQIPIIFENTHYFIVNKPPGIPSQPPDCRTWGRTHPNLDPTPLLERFKAIYYSHREVELCRTVHRLDHCVTGGMLIAKTKDGSVKFSRFLQKGGNNGYKLQRKYVAIVESSGRFNKPNNYEIKYGPKYNFLISHGGREITKFKEVDENCIVLQLVTGKKHQIRNHVSQILNQPILNDKRHGSTVNFPELFNDQIALHSACIITKIGLQTKTHLIPMEHNNTGQLWSRKYVNEEGEFTLPIKEVLLENWDQ
MGSDKIHHHHHHMSLSYKEMHQTLMEELRLYHYPVAVKFFFDDEELATFKEKAEFYVPVKPMTFCQWELAARMKGQTVLATREDLGCSNALVSFGWKDIDDNEIKSHMKYVRSIEQAEKFVRSKPRLDMGSVKAIAVGPLGDAIVAPSVVHFYCDNMQSYHLAVDYMAAMDQHPLRTNVTMNSSACGGTVFSFLEKTANMLPACSGSYNAGKTERGEINFMIPGEHIEATVERLLERKRNLGSSAITRPGDGFPGADVCKNCPLIIFKKEK
MGSDKIHHHHHHMSNNHKDSTINLYNHTASDWIRGEPSSLSDFTARPSVLELCEPVSGLRVVDIGCGEGYCSRELHRRGAAQVYGIDLSQGMIEAAKLQEVEHPLSISYEVGCATNLKRFDDSEIDLVVAVFLFNYLTISQTQECMAEVARILRPGGRFVFSVPHPSFPYMREAAYPFYFQVEGAGYFSNRDQQFPGRIWKRDGSWLNVQLIHKTLEDYFNALRIAGFNTMPILQELRVTSEHIAVDKSFFSPLLDQPLHLALQILR
MGSDKIHHHHHHMSNNKCITVIGGVYIERYAWPHWDELYGSGGRALSVLQSLGCATKLYSCLNKDSANILQARAGIYKTSFEICSSLKESYRPIKFHYLHGLSTPQISAITTEFAQQNEIIEDNILVFGMLEGNPTISGNKVVYDPQNPISPKDFSENGSTANELAIVLNTNEAYKLIKNRNLSLDEIAYELIKNKAKVVIIKQGVRGVNIYQKLNDRYIKKDSVPCYFTKNVWKIGSGDCFSAHFAYQWIYEGKTPTEAAELASKATAYYCETRGYPSFEEFTNWKNRVQPITHRHSEKKVTVYLAGPFFTLSQIWLINETRRLLSEMGLIVFSPYHEIGTGDAIMVVPKDIDGINNSDIIFAIFDGKDSGTIFEIGYATAKNKPVIVYNENEKSEDLKMMEGTDCIVIKDYVSAIYRTLWESQKL
MGSDKIHHHHHHMSNTPIELKGSSFTLSVVHLHEAEPKVIHQALEDKIAQAPAFLKHAPVVLNVSALEDPVNWSAMHKAVSATGLRVIGVSGCKDAQLKAEIEKMGLPILTEGKEKAPRPAPTPQAPAQNTTPVTKTRLIDTPVRSGQRIYAPQCDLIVTSHVSAGAELIADGNIHVYGMMRGRALAGASGDRETQIFCTNLMAELVSIAGEYWLSDQIPAEFYGKAARLQLVENALTVQPLN
MGSDKIHHHHHHMSNVISVENLGKKYLISHQGREPYTALRDVLTDGARAFYRRLFSPGTSQADAQAEEFWALKDVSFEVKQGDRIGIIGRNGAGKSTLLKILSRITEPTEGRVRIRGRVASLLEVGTGFHPELTGRENIFLNGAILGMNRAEIARKFDEIVAFAEIEKFLDTPVKRYSSGMYVRLAFAVAAHLEPEILIVDEVLAVGDAQFQNKCLGKMEDVSTKEGRTVLFVSHNMGAIDRLCTRAVLLERGRVRLADFTKPVIQMYLDKAKNAISAWSCSTSIPDFDGIFFESISIVNKDRKIAEVLPSNEPFSITLVVNATASLKGVQIAIRITNEQGIPILTTTNCDKAGKLQEISRGRYRYTVSLPASFLPPGYYTLIVASFVPGEKLFDGVEDKLGFCIDDMGSLATLMKDGRLGVVTPLMPWDEVRL
MGSDKIHHHHHHMSPEPNGDAVSIILETEGPMTAAPKTVRSVERTLQILELMNRAAVVRVQYLAEQIGLPAPTVVRLLETLVAAGYVRKIGRQAGYCVTEKVAALGAGHHGLPQVFDVAREAAEDLTRRTLWPTALATLDVDALVIRFSTIPMSPLSHYQSTINRRMTLLDYAHGRAYLGFCPTEERQHLVALLQQTAGSVEEARAIGERAQSVVALTRASGFGERTGNIQPETHSLALPLRMGAKLVGTLGITYFAKAKVDVSALKSDLRAAAEACTSGTAYRAPASSG
MGSDKIHHHHHHMSQAIPSSRVGVKINEWYKMIRQFSVPDAEILKAEVEQDIQQMEEDQDLLIYYSLMCFRHQLMLDYLEPGKTYGNRPTVTELLETIETPQKKLTGLLKYYSLFFRGMYEFDQKEYVEAIGYYREAEKELPFVSDDIEKAEFHFKVAEAYYHMKQTHVSMYHILQALDIYQNHPLYSIRTIQSLFVIAGNYDDFKHYDKALPHLEAALELAMDIQNDRFIAISLLNIANSYDRSGDDQMAVEHFQKAAKVSREKVPDLLPKVLFGLSWTLCKAGQTQKAFQFIEEGLDHITARSHKFYKELFLFLQAVYKETVDERKIHDLLSYFEKKNLHAYIEACARSAAAVFESSCHFEQAAAFYRKVLKAQEDILKGRVFICLLRKKVMMCLAVTLVFGSMSFPTLTNSGGFKESTDRNTTYIDHSPYKLSDQKKALS
MGSDKIHHHHHHMSQFEQDAHLKQQSDRALSDHELQADHTRQKTHELPAHFDFQQAGKQVLSIERDGLAQLDQYIDDNFTLACKNIFHCKGKVVVMGMGKSGHIGCKIAATFASTGTPAFFVHPGEASHGDLGMVTPHDIVIAISNSGESHEILSLIPVLKRQKVFLICMTSAPESTMGKAADIHLCVHVPQEACPLGLAPTTSTTATLVMGDALAVALLQARGFTAEDFALSHPGGALGRKLLLRVSDIMHSGDEIPHVPHDASLRDALVEITRKNLGMTVICEADMKIQGIFTDGDLRRIFDMNIDLNSARIADVMTAGGIRVAPQTLAVDALNLMQSRHITSVLVAENDRLVGIVHMHDMLRAGVV
MGSDKIHHHHHHMSQHVLIAGGGIVGCLTAMELVSRGCRVTIVERNNIASQTSGESSWAGTGIMFPLLPWMYSDHVNTLTHYGASLYPDICARLFKETGIDPQMLDSGFLLLPPFDREAALTWCARYQVKAEDTKAAGFGVQSPNGQDALWLPDVKQVRPPCLMHALRTWLENHHVRLLERTELMPLSPGTSRLTAWATTSGELLEADRFIVTSGAWSFELLKEVASKLQIKPMRGQILLYKPEHNPRAVIFREDFYLVPRRDGYLLAGSTLEDVGFDPSVTDTVRDAIRAKAAALMPELADLPILKHWSGLRPGTPENLPIISPHPGIENLYLNTGHFRYGLTMGPASASLAAALVCGETPWTDPTPFSLPQ
MGSDKIHHHHHHMSQIPVAEKLVGALSSGLAVLRYLAGMPTPVGVTRVARDLELNSSTCFNLLKTLVHEGLVTFDERTKTYTIGIGLVELAKGALDQASFARLLRPQLESIAQQHKVTATLWERTRNERVVLVDLADNPAAMRVHMSIGQRLPMYLAALGRCMAAYSELSADELRTRIESFRWENAPSFEEYYAEVQDVKERGYAVDNGNYVKGVTTVSAPVIDANKRAVMAISAVSFSAQLNRAAIRALGEDLGARAIEASRAISGRVRAA
MGSDKIHHHHHHMSQRENPQNSSQDVADLLGGAFAGHTMQRLRTPDGKYRYSYVSSGVQASFGLDPEALMQLQDVDHSWLHPADRSLFIAALEQSAAALTRLDEEVRVSLDDGTFKWVRSIGNPRRMRDGTVIWDGVALDVTDRHEASEALERTLTQVRQNETSEGRFSYIAASDVLDRLSSLRAAVEQLDLSVPTAAHVHAVFQKFERGLFAARDLLDDTALDETRPTDHEPHKDISATLTPRQQDILGHVSRGATNRDIARAMDISEGTVKLHISAILKRTGAQNRTEAALAWTSSNGTPRR
MGSDKIHHHHHHMSRAHVDHRDLVRFAEERVNLPKEKADEFRAQARRLREKLEGYLAEHPDFALKKMLLSGSLAKGTALRSLNDIDVAVYISGSDAPHDLQALLNYLAEKLRKAFPNFSPEQVQPQTYSVTVNFRGTGLNVDVVPVLYAGLPDWRGNLISQDDGSFLETSIPLHLECARKRKQAQPTHFAQVVRLIKYWARRMKQEHDGFRFKSFMIEMILAKLTDNGTDLSDYPEALQSFFTYVAESNLSERIVFEDYYQASTVAPSADRVQIIDPINASNNVARLYTAQNAAAIVDAALDAGDAIDAALKAPTKELTVHYWQKVFGSSFQG
MGSDKIHHHHHHMSRDLPPLNALRAFESTARFGSVSQAAEQLSVTHGAVSRQLKVLEEHLGVSLFSKDGRGLKLTDAGIRLRDASADAFDRLRSVCAELSKGSVDAPFVLGCSGSLLARWFIPRLSRLNAELPDLRLHLSAGEGDLDPRRPGLDALLVFAEPPWPADMQVFELASERIGPVLSPRFARFESMRDAPANALLEESLLQTTSRPQAWPSWAQQNGIDPDALRYGQGFEHLYYLLEAAVAGLGIAIAPEPLVIDDLKAGRLAAPWGFSETPAQLALWVPRRAADGRARQLAQWLKNELKRSGDPIRN
MGSDKIHHHHHHMSSDSRDLARSATAWPFQEARALLDERLKGKAPDKGYVLFETGYGPSGLPHIGTFGEVARTTMVRRAFSLLAPEIPTRLFAFSDDMDGLRKVPDNIPNKEMVAKHLGKPLTRIPDPFGTHESFGHHNNARLCSFLDTFGFEYEFQSATDWYKSGRFDAALLGVLKHYDEVINVVLPTLGDERRATYSPFLPVCPDTGIVLQVPVVERNVEAGTIVYKREDGKLIETPVTGGACKLQWKADWGMRWVALGVDYEMSGKDLIPSVQLSTRIATILGGRAPLNLTYELFLDDQGQKISKSKGNGLAVEDWLKYAPQESLALFMYQKPKTAKRLYFDVIPRAVDEYLAYLGKFPSEEPGKKLDNPVWHIHGGKPPAEDAHLSFNILMNLVSVCHSDDPAVIWGFIKRYAPGAAPETAPILNGLVGYAIAYFKDFVKPNMKYRKATPDEVEAFTALKDGLLALPADASVDDIQNLVYAIGKRPCFGELKAWFKACYEVLLGNDQGPRMGSFIKLFGIAETIALLDKAIAGEDM
MGSDKIHHHHHHMSSICQGTWDCQNCPKAVDNAIAHIIHPRGYHQPARKCEENFILFLIRGEVLVNSQEYAGTMLRAGEFILQAIGSKFEMLAMTECECIYYRFIQPELFCDFRFNHIMKEVSSPLIYSPLKIIPELKYFLDGSKSYLSESKVCRDLLSLKRKELAFVLGYYYSDYDLASLVHPLSKYTSTFQYFILQNYKKVKTVEELAQLGGYTVSTLRRIFNNVFHEPVYEWMQARRKEGILDELLNTNNSISEICYKYGFESLPHFSNFCKKFFGASPRMLRTNKKTI
